Reference: patent publication US20140017255A1 (E R SQUIBB AND SONS L L C, published 2014)

Tests used:
[1] = biological target: T1, human BTLA expressed on CHO cells (human, UniProt Q7Z6A9 31-289); experiment: flow cytometry, antibody titrated on CHO cells expressing human BTLA, PE-anti-huFc detection, FL2 GMFI
T1 construct: also called CHO/huBTLA; hBTLA

[2] = biological target: T2, cynomolgus BTLA (cynomolgus, UniProt A0A2K5W7M7 31-289); experiment: flow cytometry, antibody titrated on CHO cells expressing cynomolgus BTLA, PE-anti-huFc detection, FL2 GMFI
T2 construct: whole, on cells; also called cyno BTLA; monkey BTLA
T2 sequence: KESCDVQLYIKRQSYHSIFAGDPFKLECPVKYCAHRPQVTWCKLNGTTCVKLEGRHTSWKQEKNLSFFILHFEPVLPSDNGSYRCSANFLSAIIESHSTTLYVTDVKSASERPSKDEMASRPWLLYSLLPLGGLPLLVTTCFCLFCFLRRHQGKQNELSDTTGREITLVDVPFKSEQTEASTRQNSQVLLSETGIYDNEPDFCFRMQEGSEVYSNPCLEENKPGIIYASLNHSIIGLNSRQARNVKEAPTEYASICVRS

T1 sequence (Q7Z6A9 other isoform, or with tags, fused parts or gaps limits assumed): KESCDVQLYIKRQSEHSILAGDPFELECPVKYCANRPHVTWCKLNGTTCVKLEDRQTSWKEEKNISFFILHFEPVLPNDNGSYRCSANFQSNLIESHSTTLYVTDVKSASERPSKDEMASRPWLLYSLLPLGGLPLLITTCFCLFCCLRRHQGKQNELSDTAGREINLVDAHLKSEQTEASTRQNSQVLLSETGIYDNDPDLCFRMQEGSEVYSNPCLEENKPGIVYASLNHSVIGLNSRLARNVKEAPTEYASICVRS

B1: hu Mab8D5 (IgG4 version, fully human monoclonal agonist anti-BTLA antibody) (antibody, V domains shown, not shown: a dimerising Fc or GST)
VH: EVQLVESGGGLVQPGGSLRLSCAASGFTISSYDMHWVRQATGKGLEWVSVIGPAGDTYYPGSVKGRFTISRENAKNSLYLQMNSLRAGDTAVYYCAREGMAAHNYYGMDVWGQGTTVTVSS
VL: not shown
notes: also called hu Mab8D5 G4; 8D5 (G4) agonist
Work on B1 yielded an EC50 [1] of 0.0124 µM and an EC50 [2] of 0.0136 µM.
